Measurements reported in patent publication US12624097B2, “Nucleic acids, vectors, and cells that encode anti-Sp17 antibodies and other Sp17 binding proteins” (Medicovestor, Inc., priority 2023, dated 2026).
Entries after “also recorded” stand apart in the source; their conditions may differ.

Legend:
33 normal human tissues = experiment: Immunohistochemistry on a normal tissue microarray (specificity); details: 33 normal tissues, 2-3 human donors per tissue
Description: The specificity of the chAB2 antibody for Sp17 was determined with immunohistochemistry on a normal tissue microarray, which consisted of 33 normal tissues obtained from 2-3 human donors per tissue. The normal tissues included brain, eye, adrenal gland, hypophyseal, thyroid, parathyroid, tonsil, thymus, spleen, heart, lung, larynx, esophagus, stomach, small intestine, colon, liver, pancreas, salivary gland, kidney, bone, skeletal, skin, peripheral nerve, mesothelial, breast, ovary, endometrium, cervix, testis, and prostate.

Sp17 protein = biological target: T1, Sp17 protein (Homo sapiens, UniProt Q15506); experiment: Western blot detection of Sp17 protein; format: binding
T1 sequence (Q15506 1-151): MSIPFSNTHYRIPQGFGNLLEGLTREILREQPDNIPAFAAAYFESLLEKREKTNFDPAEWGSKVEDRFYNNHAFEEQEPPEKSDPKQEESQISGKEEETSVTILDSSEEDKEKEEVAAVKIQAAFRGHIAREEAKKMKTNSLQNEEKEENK
Source text: The nucleotide sequences encoding the VH and VL regions of Example 1 were cloned into a […] heavy chain gene and a mouse kappa light chain gene, respectively, and expressed in CHO-S cells to produce a mouse-human chimeric antibody, which was named chAB2. Successful generation of the antibody was confirmed by SDS-PAGE and western blotting using anti-mouse heavy and light chain antibodies and recombinant Sp17 protein (FIGS. 2 & 3).
The VH and VL nucleotide sequences of Example 1 were cloned into a human IgG4 heavy chain gene and a human kappa light chain gene, respectively. A Ser228Pro mutation was introduced in the heavy chain to reduce non-specific Fc receptor gamma binding. The resultant antibody was named SP17-AB2. Successful cloning was confirmed by sequence analysis. The amino acid sequences of the heavy chain and light chain are shown in Table 4, and the Ser228Pro mutation is underlined in SEQ ID NO: 11.

B1: chAB2: mouse-human chimeric anti-Sp17 monoclonal antibody; human VH/VL (SEQ ID NO: 3, 4) with mouse IgG2a heavy and mouse kappa light chain (antibody, V domains shown)
VH: QVQLQQSGAEVKKPGSSVKVSCKASGGTFSSYAISWVRQAPGQGLEWMGRIIPILGIANYAQKFQGRVTITADKSTSTAYMELSSLRSEDTAVYYCARPSEEVVAAYGAFDIWGQGTTVTVSS
VL: EIVLTQSPLSLPVRPGEPASISCRASQSLLRSDGFNYLDWYLQKPGQSPQLLVYLGSNRASGVPDRFSGSGSGTDFTLKISRVEAEDVGVYYCMQAVQTPYIFGQGTKLEIK
modifications: mouse IgG2a heavy and mouse kappa constant regions
binding to normal tissues (cross-reactivity) (33 normal human tissues): bound to testis and did not bind to normal tissues; also recorded: lack detectable cross-reactivity
binding to Sp17 protein by western blot (Sp17 protein): Sp17 protein was detected
